According to the RNAGym collection of RNA variant scans (doi:10.7554/elife.80360):

B1: Twister Ribozyme (parent)
chain: AACACUGCCAAUGCCGGUCCCAAGCCCGGAUAAAAGUGGAGGGGGCGG

Variants of: B1
Test: self-cleavage, relative activity (ratio to wild type); higher = more cleavage; co-transcriptional

Q: Which self-cleavage does the source give for AACACUGCCAAUGCUGUUCCCAAGCCCGGAUAAAAGUGGAGGGGGCGG here?
A: 0.204

Q: For AACACUGCCAAUGCCAGUCCCAAGCCCGGAUAAAAGUGGAGGGGACGG, which self-cleavage is on record?
A: 0.891

Q: Which self-cleavage does the source give for AACACUGCCAAUGCCAGUCCCAAGCCCGGAUAAAAGUGGGGGGGGCGG here?
A: 0.17

Q: For AACACUGCCAAUGCCAGUCCCAAGCCCGGAUAAAAGUGGUGGGGGCGG, which self-cleavage is on record?
A: 0.125

Q: With AACACUGCCAAUGCCCGUACCAAGCCCGGAUAAAAGUGGAGGGGGCGG as the variant, how does the self-cleavage read?
A: 0.165

Q: For AACACUGCCAAUGCCCGUUCCAAGCCCGGAUAAAAGUGGAGGGGGCGG, which self-cleavage is on record?
A: 0.461

Q: Which self-cleavage does the source give for AACACUGCCAAUGCCAGUCCCAAGCCGGGAUAAAAGUGGAGGGGGCGG here?
A: 0.745

Q: Which self-cleavage does the source give for AACACUGCCAAUGCCCGUCCCACGCCCGGAUAAAAGUGGAGGGGGCGG here?
A: 0.0636

Q: Which self-cleavage does the source give for AACACUGCCAAUGCCAUUCCCAAGCCCGGAUAAAAGUGGAGGGGGCGG here?
A: 0.232

Q: For AACACUGCCAAUGCCAGUCCCAAGCCCGGAUAAAAGUUGAGGGGGCGG, which self-cleavage is on record?
A: 0.656

Q: For AACACUGCCAAUGCUGGUCUCAAGCCCGGAUAAAAGUGGAGGGGGCGG, which self-cleavage is on record?
A: 0.845

Q: For AACACUGCCAAUGCCCGUCGCAAGCCCGGAUAAAAGUGGAGGGGGCGG, which self-cleavage is on record?
A: 0.104

Q: Which self-cleavage does the source give for AACACUGCCAAUGCCCGUCACAAGCCCGGAUAAAAGUGGAGGGGGCGG here?
A: 0.0672

Q: With AACACUGCCAAUGCUGGACCCAAGCCCGGAUAAAAGUGGAGGGGGCGG as the variant, how does the self-cleavage read?
A: 0.379

Q: With AACACUGCCAAUGCCAGUCCCAAGCCCGGAUAAAAGGGGAGGGGGCGG as the variant, how does the self-cleavage read?
A: 0.195

Q: With AACACUGCCAAUGCCAGUCCCAAGCCCGGAUAAUAGUGGAGGGGGCGG as the variant, how does the self-cleavage read?
A: 0.417

Q: For AACACUGCCAAUGCCAGUCCCAAGCCCGGAUAAAAGUGGAUGGGGCGG, which self-cleavage is on record?
A: 0.396

Q: Which self-cleavage does the source give for AACACUGCCAAUGCCAGUCCCAAGCCCGGAUAAAAGUGGACGGGGCGG here?
A: 0.167

Q: For AACACUGCCAAUGCCAGUCCCAAGCCCGGAUAAAAGUGGAGGUGGCGG, which self-cleavage is on record?
A: 0.321

Q: Which self-cleavage does the source give for AACACUGCCAAUGCCAGUCCCAAGCCCGGAUAAAAGUGGAGGCGGCGG here?
A: 0.181

Q: For AACACUGCCAAUGCUGGUCCCAAGCCCGGAUAAAAGUGGAGUGGGCGG, which self-cleavage is on record?
A: 0.235

Q: Which self-cleavage does the source give for AACACUGCCAAUGCUGGUCCCAAGCCCGGAUAAAAGUGGAGAGGGCGG here?
A: 0.204

Q: With AACACUGCCAAUGCUGGUCCCAAGCCCGGAUAAAAGUGGAGCGGGCGG as the variant, how does the self-cleavage read?
A: 0.296

Q: For AACACUGCCAAUGCUGGUCCCAAGCCCGGAUAAAAGUGGAGGGGGCCG, which self-cleavage is on record?
A: 0.415

Q: For AACACUGCCAAUGCCAGUCCCAACCCCGGAUAAAAGUGGAGGGGGCGG, which self-cleavage is on record?
A: 0.0993

Q: For AACACUGCCAAUGCCAGUCCCAAUCCCGGAUAAAAGUGGAGGGGGCGG, which self-cleavage is on record?
A: 0.113

Q: With AACACUGCCAAUGCCAGUCCCAAGCCCGGAUAAAAGUGGAGGGAGCGG as the variant, how does the self-cleavage read?
A: 0.928

Q: For AACACUGCCAAUGCCAGUCCCAAGCCCGGAUAAAAGUGGAGGGUGCGG, which self-cleavage is on record?
A: 1

Q: Which self-cleavage does the source give for AACACUGCCAAUGCCAGGCCCAAGCCCGGAUAAAAGUGGAGGGGGCGG here?
A: 0.0863

Q: Which self-cleavage does the source give for AACACUGCCAAUGCCAGUCCCAAGCCCGGAUACAAGUGGAGGGGGCGG here?
A: 0.799

Q: Which self-cleavage does the source give for AACACUGCCAAUGCCAGUCCCAAGCCCGGAUAUAAGUGGAGGGGGCGG here?
A: 0.858

Q: With AACACUGCCAAUGCUGGUCCCAAGCCCGGAUAAAAGUCGAGGGGGCGG as the variant, how does the self-cleavage read?
A: 0.801

Q: With AACACUGCCAAUGCUGGUGCCAAGCCCGGAUAAAAGUGGAGGGGGCGG as the variant, how does the self-cleavage read?
A: 0.251

Q: For AACACUGCCAAUGCUGGUUCCAAGCCCGGAUAAAAGUGGAGGGGGCGG, which self-cleavage is on record?
A: 0.902

Q: For AACACUGCCAAUGCCAGUCCCAAGCCCGGAUCAAAGUGGAGGGGGCGG, which self-cleavage is on record?
A: 0.97

Q: Which self-cleavage does the source give for AACACUGCCAAUGCCAGUCCCAAGCCCGGAUAAAAGUGGAGCGGGCGG here?
A: 0.241

Q: For AACACUGCCAAUGCCAGUCCCAAGCGCGGAUAAAAGUGGAGGGGGCGG, which self-cleavage is on record?
A: 0.112

Q: For AACACUGCCAAUGCUGGUCCCAAGCCCGGAUAAAAGUGGAGGGCGCGG, which self-cleavage is on record?
A: 0.812

Q: Which self-cleavage does the source give for AACACUGCCAAUGCUGGUCCCAAGCCCGGAUAAAAGUGGAGGGUGCGG here?
A: 0.988

Q: Which self-cleavage does the source give for AACACUGCCAAUGCCCGUCCCAAGCCCGGAUAAGAGUGGAGGGGGCGG here?
A: 0.298

Q: With AACACUGCCAAUGCCCGUCCCAAGCCCGGAUAACAGUGGAGGGGGCGG as the variant, how does the self-cleavage read?
A: 0.0817

Q: For AACACUGCCAAUGCCCGUCCCAAGCCCGGAUAGAAGUGGAGGGGGCGG, which self-cleavage is on record?
A: 0.403

Q: For AACACUGCCAAUGCCCGUCCCAAGCCCGGAUAAAAGUGGGGGGGGCGG, which self-cleavage is on record?
A: 0.135

Q: For AACACUGCCAAUGCUGGUCCCAAGCCCGGAUAAAAGUGGAGGGGGAGG, which self-cleavage is on record?
A: 0.944

Q: For AACACUGCCAAUGCUGGUCCCAAGCCCGGAUAAAAGUGGAGGGGGGGG, which self-cleavage is on record?
A: 0.887

Q: With AACACUGCCAAUGCUGGUCCCAAGCCCGGAUAAAAGUGGAGGGGGCGA as the variant, how does the self-cleavage read?
A: 0.765

Q: Which self-cleavage does the source give for AACACUGCCAAUGCUGGUCCCAAGCCCGGAUAAAAGUGGAGGGGGCGU here?
A: 0.987

Q: Which self-cleavage does the source give for AACACUGCCAAUGCUCGUCCCAAGCCCGGAUAAAAGUGGAGGGGGCGG here?
A: 0.464

Q: For AACACUGCCAAUGCUUGUCCCAAGCCCGGAUAAAAGUGGAGGGGGCGG, which self-cleavage is on record?
A: 0.31

Q: Which self-cleavage does the source give for AACACUGCCAAUGCUAGUCCCAAGCCCGGAUAAAAGUGGAGGGGGCGG here?
A: 0.457

Q: With AACACUGCCAAUGCCAGUCCCAAGCCCGGAUAAAAGUGCAGGGGGCGG as the variant, how does the self-cleavage read?
A: 0.141

Q: For AACACUGCCAAUGCCAGUCCCAAGCCCGGAUAAAAGUGAAGGGGGCGG, which self-cleavage is on record?
A: 0.185

Q: With AACACUGCCAAUGCCCGUCCCAAGCCCGGAUAAACGUGGAGGGGGCGG as the variant, how does the self-cleavage read?
A: 0.394

Q: With AACACUGCCAAUGCUGGUCCCAAGCCUGGAUAAAAGUGGAGGGGGCGG as the variant, how does the self-cleavage read?
A: 0.542
